Test results as given in patent publication US20260242478A1 (published 2026).
Where no end group is shown, it is not given here.

Columns and labels:
PSMA Fab [1] = target: T1, PSMA Fab; test: phage binding ELISA; biotinylated PSMA Fab on neutravidin plate, clonal phage supernatant, anti-M13 HRP detection; blocking buffer alone;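 further: before phage were added, wells were preincubated with blocking buffer either containing PSMA antigen or without it, and phage were then added with no wash in between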
T1 construct: also called Anti-PSMA Fab; 006 PSMA Fab
Procedure: (§1) Clonal phage were harvested as crude supernatants and screened via standard ELISAs. […] Prior to the addition of clonal phage. wells were incubated with blocking buffer and PSMA antigen or blocking buffer alone. Without washing or aspirating, clonal phage supernatants were then added to the wells and incubated for a short time. Wells were then washed followed by detection of bound phage using a horse radish conjugated anti-M13 antibody.

PSMA Fab [2] = target: T1, PSMA Fab; test: phage binding ELISA; biotinylated PSMA Fab on neutravidin plate, wells pre-incubated with PSMA antigen as competitor, clonal phage supernatant, anti-M13 HRP detection
Procedure: as §1

PSMA Fab (006 PSMA Fab) [3] = target: T2, PSMA Fab (006 PSMA Fab); test: phage binding ELISA; PSMA Fab wells pre-incubated with PSMA antigen as competitor, anti-M13 HRP detection
T2 construct: also called Anti-PSMA Fab
Procedure: as §1

PSMA Fab (006 PSMA Fab) [4] = target: T2, PSMA Fab (006 PSMA Fab); test: phage binding ELISA; biotinylated PSMA Fab on neutravidin plate, clonal phage supernatant, anti-M13 HRP detection;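 further: wells were preincubated with blocking buffer either containing PSMA antigen or without it before crude phage supernatant was added, briefly incubated, then washed prior to detection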
Procedure: as §1

PSMA Fab (006 PSMA Fab) [5] = target: T3, PSMA Fab (006 PSMA Fab); test: clonal phage ELISA on captured PSMA Fab, wells pre-incubated with PSMA antigen as competitor
T3 construct: also called Anti-PSMA Fab; anti-PSMA Fab
Procedure: as §1

PSMA Fab (006 PSMA Fab) [6] = target: T3, PSMA Fab (006 PSMA Fab); test: clonal phage ELISA on biotinylated PSMA Fab captured on neutravidin, anti-M13-HRP detection;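 further: crude clonal phage supernatants added to wells preincubated with PSMA antigen in blocking buffer or with blocking buffer alone, brief binding period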
Procedure: as §1

Binder	Phage binding ELISA signal, Anti-PSMA Fab (PSMA Fab [1])	Phage binding ELISA signal, Anti-PSMA Fab in presence of PSMA (PSMA Fab [2])	Phage binding ELISA signal, Anti-PSMA Fab in presence of PSMA antigen (PSMA Fab (006 PSMA Fab) [5])	Phage binding ELISA signal, Anti-PSMA Fab (PSMA Fab (006 PSMA Fab) [6])	further results
DHHICRPAWMCMGL (cysteine pairing not given here; also: fused to phage pIII, linker and order not given here, Peptide-180 library clone, tested as clonal phage supernatant; not shown: pIII filament protein of the bacteriophage, to which the peptide is fused) [Phage-3209]	1.97	0.0876	–	–	–
EGAICKPEWMCKGF [Phage-3183]	–	–	–	–	Phage binding ELISA signal, Anti-PSMA Fab with PSMA antigen (PSMA Fab (006 PSMA Fab) [3]): 0.0737; Phage binding ELISA signal, Anti-PSMA Fab (PSMA Fab (006 PSMA Fab) [4]): 2.01
YEPVCRPAWMCIGF [Phage-3177]	–	–	–	–	Phage binding ELISA signal, Anti-PSMA Fab with PSMA antigen (PSMA Fab (006 PSMA Fab) [3]): 0.0622; Phage binding ELISA signal, Anti-PSMA Fab (PSMA Fab (006 PSMA Fab) [4]): 2.02
YEQACQPPWMCLGF [Phage-3178]	–	–	–	–	Phage binding ELISA signal, Anti-PSMA Fab with PSMA antigen (PSMA Fab (006 PSMA Fab) [3]): 0.0671; Phage binding ELISA signal, Anti-PSMA Fab (PSMA Fab (006 PSMA Fab) [4]): 2.02
HEHFCRPLWMCTGL (peptide, not shown: large carriers, Clonal phage of the Peptide-180 library, tested as crude supernatant) [Phage-3195]	–	–	0.0753	1.99	–
PFAYCVPQWMCEAF (cysteine pairing not given here; also: fused to phage pIII, linker and order not given here, Peptide-180 library clone, tested as clonal phage supernatant; not shown: pIII filament protein of the bacteriophage, to which the peptide is fused) [Phage-3208]	1.98	0.0639	–	–	–
MVRLCEPEWMCTGF [Phage-3184]	–	–	–	–	Phage binding ELISA signal, Anti-PSMA Fab with PSMA antigen (PSMA Fab (006 PSMA Fab) [3]): 0.116; Phage binding ELISA signal, Anti-PSMA Fab (PSMA Fab (006 PSMA Fab) [4]): 2.01
DMPLCIPAWMCAGF (peptide, not shown: large carriers, cysteine pairing not given here; also: fused to phage pIII, junction sequence not given here, Clonal phage of the Peptide-180 library, tested as crude supernatant) [Phage-3194]	–	–	0.0615	1.99	–
IEKWCFPMWMCEGF (peptide, not shown: large carriers, cysteine pairing not given here; also: fused to phage pIII, junction sequence not given here, Clonal phage of the Peptide-180 library, tested as crude supernatant) [Phage-3185]	–	–	0.0806	2.01	–
FDRVCKPEWMCNGL (peptide, not shown: large carriers, Clonal phage of the Peptide-180 library, tested as crude supernatant) [Phage-3198]	–	–	0.0655	1.99	–
VVKICQPDWMCWGF (cysteine pairing not given here; also: fused to phage pIII, linker and order not given here, Peptide-180 library clone, tested as clonal phage supernatant; not shown: pIII filament protein of the bacteriophage, to which the peptide is fused) [Phage-3205]	1.98	0.0655	–	–	–
VEVRCVPAWMCTGF (peptide, not shown: large carriers, Clonal phage of the Peptide-180 library, tested as crude supernatant) [Phage-3196]	–	–	0.0941	1.99	–
EVVMCRPLWMCSGF (peptide, not shown: large carriers, Clonal phage of the Peptide-180 library, tested as crude supernatant) [Phage-3192]	–	–	0.0925	2	–
QHWQCVPRWMCDGF (peptide, not shown: large carriers, Clonal phage of the Peptide-180 library, tested as crude supernatant) [Phage-3191]	–	–	0.103	2	–
IQILCTPTWMCVGF [Phage-3182]	–	–	–	–	Phage binding ELISA signal, Anti-PSMA Fab with PSMA antigen (PSMA Fab (006 PSMA Fab) [3]): 0.0781; Phage binding ELISA signal, Anti-PSMA Fab (PSMA Fab (006 PSMA Fab) [4]): 2.01
AAPMCIPAWMCHGF (peptide, not shown: large carriers, Clonal phage of the Peptide-180 library, tested as crude supernatant) [Phage-3187]	–	–	0.137	2	–
HERECIPRWMCTGF [Phage-3180]	–	–	–	–	Phage binding ELISA signal, Anti-PSMA Fab with PSMA antigen (PSMA Fab (006 PSMA Fab) [3]): 0.065; Phage binding ELISA signal, Anti-PSMA Fab (PSMA Fab (006 PSMA Fab) [4]): 2.01
ADLRCVPEWMCMGI (peptide, not shown: large carriers, Clonal phage of the Peptide-180 library, tested as crude supernatant) [Phage-3190]	–	–	0.0654	2	–
LERLCQPSWMCTGF (cysteine pairing not given here; also: fused to phage pIII, linker and order not given here, Peptide-180 library clone, tested as clonal phage supernatant; not shown: pIII filament protein of the bacteriophage, to which the peptide is fused) [Phage-3204]	1.98	0.0739	–	–	–

Binder	Phage binding ELISA signal, Anti-PSMA Fab (PSMA Fab [1])	Phage binding ELISA signal, Anti-PSMA Fab in presence of PSMA (PSMA Fab [2])	Phage binding ELISA signal, Anti-PSMA Fab in presence of PSMA antigen (PSMA Fab (006 PSMA Fab) [5])	Phage binding ELISA signal, Anti-PSMA Fab (PSMA Fab (006 PSMA Fab) [6])	further results
LSPMCVPQWMCSGF (peptide, not shown: large carriers, Clonal phage of the Peptide-180 library, tested as crude supernatant) [Phage-3197]	–	–	0.119	1.99	–
VSELCRPAWMCHGF (peptide, not shown: large carriers, Clonal phage of the Peptide-180 library, tested as crude supernatant) [Phage-3186]	–	–	0.082	2	–
VTPLCVPKWMCELF (cysteine pairing not given here; also: fused to phage pIII, linker and order not given here, Peptide-180 library clone, tested as clonal phage supernatant; not shown: pIII filament protein of the bacteriophage, to which the peptide is fused) [Phage-3200]	1.98	0.0878	–	–	–
VTAKCVPEWMCTGF [Phage-3174]	–	–	–	–	Phage binding ELISA signal, Anti-PSMA Fab with PSMA antigen (PSMA Fab (006 PSMA Fab) [3]): 0.0968; Phage binding ELISA signal, Anti-PSMA Fab (PSMA Fab (006 PSMA Fab) [4]): 2.02
VTVRCEPAWMCMGF (cysteine pairing not given here; also: fused to phage pIII, linker and order not given here, Peptide-180 library clone, tested as clonal phage supernatant; not shown: pIII filament protein of the bacteriophage, to which the peptide is fused) [Phage-3199]	1.98	0.0999	–	–	–
VSVRCEPEWMCMGF (cysteine pairing not given here; also: fused to phage pIII, linker and order not given here, Peptide-180 library clone, tested as clonal phage supernatant; not shown: pIII filament protein of the bacteriophage, to which the peptide is fused) [Phage-3203]	1.98	0.0741	–	–	–
DTPKCIPQWMCVGF (cysteine pairing not given here; also: fused to phage pIII, linker and order not given here, Peptide-180 library clone, tested as clonal phage supernatant; not shown: pIII filament protein of the bacteriophage, to which the peptide is fused) [Phage-3210]	1.97	0.0677	–	–	–
VVPLCIPQWMCAVF (cysteine pairing not given here; also: fused to phage pIII, linker and order not given here, Peptide-180 library clone, tested as clonal phage supernatant; not shown: pIII filament protein of the bacteriophage, to which the peptide is fused) [Phage-3201]	1.98	0.0757	–	–	–
YMMICRPAWMCSGL [Phage-3179]	–	–	–	–	Phage binding ELISA signal, Anti-PSMA Fab with PSMA antigen (PSMA Fab (006 PSMA Fab) [3]): 0.116; Phage binding ELISA signal, Anti-PSMA Fab (PSMA Fab (006 PSMA Fab) [4]): 2.01
VTRMCVPEWMCSGI [Phage-3176]	–	–	–	–	Phage binding ELISA signal, Anti-PSMA Fab with PSMA antigen (PSMA Fab (006 PSMA Fab) [3]): 0.0628; Phage binding ELISA signal, Anti-PSMA Fab (PSMA Fab (006 PSMA Fab) [4]): 2.02
GEAVCIPRWMCDGF (peptide, not shown: large carriers, Clonal phage of the Peptide-180 library, tested as crude supernatant) [Phage-3193]	–	–	0.0937	1.99	–
DMRVCKPEWMCTGL (peptide, not shown: large carriers, Clonal phage of the Peptide-180 library, tested as crude supernatant) [Phage-3188]	–	–	0.109	2	–
YPSMCKPLWMCQGF [Phage-3175]	–	–	–	–	Phage binding ELISA signal, Anti-PSMA Fab with PSMA antigen (PSMA Fab (006 PSMA Fab) [3]): 0.111; Phage binding ELISA signal, Anti-PSMA Fab (PSMA Fab (006 PSMA Fab) [4]): 2.02
HDPACVPSWMCFGF (cysteine pairing not given here; also: fused to phage pIII, linker and order not given here, Peptide-180 library clone, tested as clonal phage supernatant; not shown: pIII filament protein of the bacteriophage, to which the peptide is fused) [Phage-3207]	1.98	0.0668	–	–	–
GVSMCIPAWMCQGF [Phage-3181]	–	–	–	–	Phage binding ELISA signal, Anti-PSMA Fab with PSMA antigen (PSMA Fab (006 PSMA Fab) [3]): 0.0737; Phage binding ELISA signal, Anti-PSMA Fab (PSMA Fab (006 PSMA Fab) [4]): 2.01
LEALCVPRWMCEGF (peptide, not shown: large carriers, Clonal phage of the Peptide-180 library, tested as crude supernatant) [Phage-3189]	–	–	0.096	2	–
TVVKCVPEWMCEWL (cysteine pairing not given here; also: fused to phage pIII, linker and order not given here, Peptide-180 library clone, tested as clonal phage supernatant; not shown: pIII filament protein of the bacteriophage, to which the peptide is fused) [Phage-3206]	1.98	0.0606	–	–	–
VVVSCIPTWMCVGF (cysteine pairing not given here; also: fused to phage pIII, linker and order not given here, Peptide-180 library clone, tested as clonal phage supernatant; not shown: pIII filament protein of the bacteriophage, to which the peptide is fused) [Phage-3202]	1.98	0.103	–	–	–
